The text below walks through data of publication PMC8054479 (Nature, 2020).

This test has as its target T1, SMCR8 (Smith-Magenis syndrome chromosome region, candidate 8) (human, UniProt Q8TEV9 1-937).
T1 sequence: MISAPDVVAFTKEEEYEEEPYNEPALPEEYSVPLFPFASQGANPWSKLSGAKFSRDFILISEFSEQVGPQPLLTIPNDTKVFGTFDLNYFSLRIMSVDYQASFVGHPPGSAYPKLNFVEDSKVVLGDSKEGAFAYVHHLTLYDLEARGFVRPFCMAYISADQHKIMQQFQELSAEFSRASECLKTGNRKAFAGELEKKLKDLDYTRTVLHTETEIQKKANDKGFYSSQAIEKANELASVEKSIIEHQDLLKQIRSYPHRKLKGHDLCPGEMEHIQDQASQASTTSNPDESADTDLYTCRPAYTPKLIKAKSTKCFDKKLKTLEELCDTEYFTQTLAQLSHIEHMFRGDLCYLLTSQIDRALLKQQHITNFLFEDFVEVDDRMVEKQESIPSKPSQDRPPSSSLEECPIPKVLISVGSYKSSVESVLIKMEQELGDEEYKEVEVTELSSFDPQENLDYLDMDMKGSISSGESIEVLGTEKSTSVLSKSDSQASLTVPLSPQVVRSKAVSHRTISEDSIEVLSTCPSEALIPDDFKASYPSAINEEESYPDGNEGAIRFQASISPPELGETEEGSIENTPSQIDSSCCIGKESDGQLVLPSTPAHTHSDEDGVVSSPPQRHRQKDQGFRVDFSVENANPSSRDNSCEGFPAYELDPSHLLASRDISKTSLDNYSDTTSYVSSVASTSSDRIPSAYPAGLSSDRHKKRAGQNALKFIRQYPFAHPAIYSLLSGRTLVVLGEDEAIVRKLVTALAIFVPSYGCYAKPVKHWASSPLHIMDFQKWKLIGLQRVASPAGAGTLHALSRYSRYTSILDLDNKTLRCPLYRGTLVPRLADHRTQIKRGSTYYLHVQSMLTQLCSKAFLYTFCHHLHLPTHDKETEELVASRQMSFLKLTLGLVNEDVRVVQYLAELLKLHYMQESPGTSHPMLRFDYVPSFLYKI
Nature of the test: cryo-EM structure.

B1: C9orf72 (natural protein)
chain: MSTLCPPPSPAVAKTEIALSGKSPLLAATFAYWDNILGPRVRHIWAPKTEQVLLSDGEITFLANHTLNGEILRNAESGAIDVKFFVLSEKGVIIVSLIFDGNWNGDRSTYGLSIILPQTELSFYLPLHRVCVDRLTHIIRKGRIWMHKERQENVQKIILEGTERMEDQGQSIIPMLTGEVIPVMELLSSMKSHSVPEEIDIADTVLNDDDIGDSCHEGFLLNAISSHLQTCGCSVVVGSSAEKVNKIVRTLCLFLTPAERKCSRLCEAESSFKYESGLFVQGLLKDSTGSFVLPFRQVMYAPYPTTHIDVDVNTVKQMPPCHEHIYNQRRYMRSELTAFWRATSEEDMAQDTIIYTDESFTPDLNIFQDVLHRDTLVKAFLDQVFQLKPGLSLRSTFLAQFLLVLHRKALTLIKYIEDDTQKGKKPFKSLRNLKIDLDLTAEGDLNIIMALAEKIKPGLHSFIFGRPFYTSVQERDVLMTF
With B1, the binding result is “binds”.

B2: WDR41 (WD repeat protein 41) (natural protein)
chain: MLRWLIGGGREPQGLAEKSPLQTIGEEQTQNPYTELLVLKAHHDIVRFLVQLDDYRFASAGDDGIVVVWNAQTGEKLLELNGHTQKITAIITFPSLESCEEKNQLILTASADRTVIVWDGDTTRQVQRISCFQSTVKCLTVLQRLDVWLSGGNDLCVWNRKLDLLCKTSHLSDTGISALVEIPKNCVVAAVGKELIIFRLVAPTEGSLEWDILEVKRLLDHQDNILSLINVNDLSFVTGSHVGELIIWDALDWTMQAYERNFWDPSPQLDTQQEIKLCQKSNDISIHHFTCDEENVFAAVGRGLYVYSLQMKRVIACQKTAHDSNVLHVARLPNRQLISCSEDGSVRIWELREKQQLAAEPVPTGFFNMWGFGRVSKQASQPVKKQQENATSCSLELIGDLIGHSSSVEMFLYFEDHGLVTCSADHLIILWKNGERESGLRSLRLFQKLEENGDLYLAV
Consider B2, for which the binding result is “binds”.
